Numbered stars: 1 amine (or outer) side, 2 acyl side, 3 side chain; on linkers, the order of the positions; unused ones are H or OH. Square brackets hold non-standard residues; d marks the D form. Ends that are not written are not given here. Arg(Me2a) = CN(C)C(=N)NCCC[C@H](N)C(=O)O; Kac = CC(=O)NCCCC[C@H](N[*:1])C(=O)[*:2]; Lys(Me3) = C[N+](C)(C)CCCC[C@H](N)C(=O)O; Arg(Me2s) = CN=C(NC)NCCC[C@H](N)C(=O)O; pT = C[C@@H](OP(=O)(O)O)[C@H](N)C(=O)O; Lys(Me2) = CN(C)CCCC[C@H](N)C(=O)O; pS = N[C@@H](COP(=O)(O)O)C(=O)O; Cit = NC(=O)NCCC[C@H](N)C(=O)O; Lys(Me) = CNCCCC[C@H](N)C(=O)O; Me2a = not defined here; me2a = not defined here
How the values were obtained:
[1] = molecular target: T1, CaBdf1 BD2 (GST-tagged, wild-type) (Candida albicans (strain SC5314 / ATCC …, UniProt Q5A4W8)); test: histone peptide array (Active Motif MODified), 1 uM GST-tagged bromodomain, anti-GST detection, normalized mean intensity
T1 chain: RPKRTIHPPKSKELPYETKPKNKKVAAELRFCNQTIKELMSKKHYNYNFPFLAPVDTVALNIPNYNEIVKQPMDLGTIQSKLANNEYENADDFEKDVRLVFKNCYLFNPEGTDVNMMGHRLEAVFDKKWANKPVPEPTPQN

[2] = molecular target: T2, CaBdf1 BD1 (GST-tagged, wild-type) (Candida albicans (strain SC5314 / ATCC …, UniProt Q5A4W8)); test: as above
T2 chain: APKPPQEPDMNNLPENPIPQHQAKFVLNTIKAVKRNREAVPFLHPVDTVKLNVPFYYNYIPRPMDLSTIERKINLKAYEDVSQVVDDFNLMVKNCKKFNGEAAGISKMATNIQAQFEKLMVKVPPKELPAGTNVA

ARTK(Me)QTAR(me2s)K(me3)STGGKAPRKQ showed a binding score [1] of 0.00407 and a binding score [2] of 0.00435.

With AR(me2a)TK(me2)QTAR(me2a)K(Me)STGGKAPRKQ (reading uncertain) the binding score [1] was 0.00629 and the binding score [2] was 0.00363.

A[Arg(Me2a)]T[Kac]QTAR[Kac]STGGKAPRKQ was tested, and the binding score [1] was 0.00851 and the binding score [2] was 0.046.

Work on ARTKQTARKSTGGKAPRKQ (A R T Kac Q T A Rme2a Kme1 S T G G K A P R K Q) yielded a binding score [1] of 0.00555 and a binding score [2] of 0.00834.

Work on SGRGKGGKGLGKGGAKRHR (S G R G K G G K G L G Kac G G A Kac R H R) yielded a binding score [1] of 0.0248 and a binding score [2] of 0.0743.

PRKQLATKAARK(Me)SAPATGG was tested, and the binding score [1] was 0.00333 and the binding score [2] was 0.00798.

For AR[pT]KQTARKSTGGKAPRKQ, the binding score [1] was 0.00259 and the binding score [2] was 0.

PRKQLATKAARKSAPATGG (P R K Q L A T K A A R Kme2 S A P A T G G) showed a binding score [1] of 0.00666 and a binding score [2] of 0.00254.

For SGRGKGGKGLGKGGAKRHR (S G R G Kac G G Kac G L G Kac G G A Kac R H R), the binding score [1] was 0.902 and the binding score [2] was 0.471.

ARTKQTA[Arg(Me2s)][Lys(Me)][pS]TGGKAPRKQ gave a binding score [1] of 0.00259 and a binding score [2] of 0.00508.

K[Lys(Me)][Lys(Me2)][Lys(Me3)]K(Ac)R[Arg(Me2s)]R[Arg(Me2a)]R[Cit]K[Lys(Me)]K(Ac)[Lys(Me3)]RK [background 01] was tested, and the binding score [1] was 0.00629 and the binding score [2] was 0.00906.

PRKQLATKAAR(Me2a)K(Me3)[pS]APATGG (reading uncertain) gave a binding score [1] of 0.00296 and a binding score [2] of 0.00218.

Work on ARTKQTARKSTGGKAPRKQ (A R T K Q T A Rme2s Kme3 pS T G G K A P R K Q) yielded a binding score [1] of 0.00333 and a binding score [2] of 0.00508.

Work on SGRGKGGKGLGKGGAKRHR (S G Rme2a G K G G Kac G L G K G G A K R H R) yielded a binding score [1] of 0.0074 and a binding score [2] of 0.0218.

For ARTKQTARKSTGGKAPRKQ (A Rme2a T Kme1 Q T A Rme2a Kme1 S T G G K A P R K Q), the binding score [1] was 0.00259 and the binding score [2] was 0.00363.

ARTKQTARKSTGGKAPRKQ (A R T K Q T A R Kac S T G G Kac A P R K Q) was tested, and the binding score [1] was 0.0211 and the binding score [2] was 0.095.

With RKSAPATGGVKKPHRYRPG (R K S A P A T G G V Kme1 K P H R Y R P G) the binding score [1] was 0.00481 and the binding score [2] was 0.00616.

With ARTKQTARKSTGGKAPRKQ (A R T K Q T A R Kme2 S pT G G K A P R K Q) the binding score [1] was 0.00185 and the binding score [2] was 0.00544.

Work on ARTKQTA[Arg(Me2a)][Lys(Me)]S[pT]GGKAPRKQ yielded a binding score [1] of 0.00259 and a binding score [2] of 0.00471.

Work on PDPAK(Ac)SAPAPKK(Ac)GSKKAVT yielded a binding score [1] of 0.00555 and a binding score [2] of 0.017.

For SGRGK(Ac)QGGK(Ac)ARAK(Ac)AKSRSS, the binding score [1] was 0.00888 and the binding score [2] was 0.0591.

SGRGKGGKGLGKGGAKRHR (S G R G K G G K G L G Kac G G A K R H R) gave a binding score [1] of 0.00851 and a binding score [2] of 0.033.

With AR(me2s)TK(Me)QTAR(me2s)K(me3)STGGKAPRKQ the binding score [1] was 0.00629 and the binding score [2] was 0.0029.

Work on SGRGKGGKGLGKGGAKRHR (S G R G Kac G G K G L G K G G A K R H R) yielded a binding score [1] of 0.0241 and a binding score [2] of 0.0185.

Work on PDPAKSAPAPKKG[pS]K(Ac)KAVT yielded a binding score [1] of 0.145 and a binding score [2] of 0.0914.

For PRKQLATKAA[Arg(Me2s)]K(Ac)[pS]APATGG, the binding score [1] was 0.00629 and the binding score [2] was 0.00145.

For ARTKQTARKSTGGKAPRKQ (A R T K Q T A Rme2a Kme3 S pT G G K A P R K Q), the binding score [1] was 0.00555 and the binding score [2] was 0.00653.

A[Arg(Me2s)]T[Lys(Me2)]QTA[Arg(Me2a)][Lys(Me)]STGGKAPRKQ showed a binding score [1] of 0.0037 and a binding score [2] of 0.00544.

SGRGKGGKGLGKGGAKRHR (pS G Rme2a G Kac G G Kac G L G K G G A K R H R) was tested, and the binding score [1] was 0.0396 and the binding score [2] was 0.0312.

In the case of ARTKQTARKSTGGKAPRKQ (A Rme2s T Kac Q T A Rme2s Kme3 S T G G K A P R K Q), the binding score [1] is reported as 0.00555 and the binding score [2] is reported as 0.00834.

In the case of ARTKQTARKSTGGKAPRKQ (A Rme2s T Kme2 Q T A Rme2s Kme2 S T G G K A P R K Q), the binding score [1] is reported as 0.00407 and the binding score [2] is reported as 0.00435.

Work on SGRGKGGKGLGKGGAKRHR (S G Rme2s G Kac G G K G L G K G G A K R H R) yielded a binding score [1] of 0.00555 and a binding score [2] of 0.0225.

B1: c-myc tag (peptide)
chain: EQKLISEEDLA
modifications: histone peptide post-translational modifications (acetyl, methyl, phospho, citrulline) listed in columns 4-7 and embedded in the sequence text; N-terminus free or acetylated in column 8
Binder B1 has a binding score [1] of 1 and a binding score [2] of 1.01.

For ARTKQTARKSTGGKAPRKQ (A R T K Q T A Rme2s K S T G G K A P R K Q), the binding score [1] was 0.00148 and the binding score [2] was 0.00218.

Binder [pS]GRGK(Ac)QGGK(Ac)ARAKAKSRSS has a binding score [1] of 0.00925 and a binding score [2] of 0.0381.

PDPAK(Ac)SAPAPKK(Ac)GSK(Ac)KAVT showed a binding score [1] of 0.137 and a binding score [2] of 0.0616.

ARTKQTARKSTGGKAPRKQ (A R T K Q T A Rme2a Kme3 pS pT G G K A P R K Q) showed a binding score [1] of 0.0037 and a binding score [2] of 0.00326.

A[Arg(Me2s)]T[Kac]QTA[Arg(Me2s)][Lys(Me2)]STGGKAPRKQ was tested, and the binding score [1] was 0.00666 and the binding score [2] was 0.00725.

For SGRGKGGKGLGKGGAKRHR (S G Rme2a G K G G K G L G K G G A K R H R), the binding score [1] was 0.0215 and the binding score [2] was 0.00906.

A[Arg(Me2s)]TKQTARKSTGGKAPRKQ was tested, and the binding score [1] was 0.0037 and the binding score [2] was 0.000725.

With PRKQLATKAAR(Me2s)K[pS]APATGG the binding score [1] was 0.00444 and the binding score [2] was 0.00181.

B2: H3 26-45 (peptide)
chain: RKSAPATGGVKKPHRYRPG
modifications: not fully specified; histone peptide post-translational modifications (acetyl, methyl, phospho, citrulline) listed in columns 4-7 and embedded in the sequence text; N-terminus free or acetylated in column 8
For B2, the binding score [1] was 0.00296 and the binding score [2] was 0.00508.

In the case of SGRGKGGKGLGKGGAKRHR (S G R G Kac G G Kac G L G K G G A K R H R), the binding score [1] is reported as 0.0326 and the binding score [2] is reported as 0.0294.

ARTKQTARKSTGGKAPRKQ (A R T K Q T A Rme2a Kme3 pS T G G K A P R K Q) was tested, and the binding score [1] was 0.00333 and the binding score [2] was 0.00254.

Work on ARTK(Ac)QTARKSTGGKAPRKQ yielded a binding score [1] of 0.00222 and a binding score [2] of 0.00363.

ARTKQTARKSTGGKAPRKQ (A R T Kac Q T A Rme2s Kme2 S T G G K A P R K Q) was tested, and the binding score [1] was 0.00296 and the binding score [2] was 0.00363.

SGRGKQGGK(Ac)ARAK(Ac)AKSRSS gave a binding score [1] of 0.0481 and a binding score [2] of 0.178.

Binder SGRGKGGKGLGKGGAKRHR (pS G Rme2s G Kac G G K G L G K G G A K R H R) has a binding score [1] of 0.00555 and a binding score [2] of 0.0131.

In the case of SGRGKGGKGLGKGGAKRHR (S G R G K G G Kac G L G K G G A K R H R), the binding score [1] is reported as 0.027 and the binding score [2] is reported as 0.0344.

Binder [pS]GRGKQGGK(Ac)ARAKAKSRSS has a binding score [1] of 0.0137 and a binding score [2] of 0.0174.

Reference: paper PMC5454392, “Selective BET bromodomain inhibition as an antifungal therapeutic strategy” (Nature Communications, 2017)
